One block for each molecule: values may come before it. Primed or numbered codes have the meaning given here. [ ]: non-standard residue; d: D form. Cha = N[C@@H](CC1CCCCC1)C(=O)O; IRDye800CW′ = not defined here; AEEA = NCCOCCOCC(=O)O
Experiments:
human uPAR = human uPAR (Homo sapiens, UniProt Q03405); experiment: SPR binding of conjugate or uPA to immobilized His-tagged recombinant human uPAR
Method: SPR was also applied to determine the KD-value of binding of the uPAR-binding conjugate to uPAR.
The uPAR-binding conjugates as well as the endogenous ligand uPA were analyzed in 2-fold dilution series from low to high concentration with a running buffer injection in between each injection. Injection of uPAR-binding conjugate or uPA (at a rate of 50 μL/minute) was performed for 120 seconds (association), and dissociation was assessed for 120 s (at a rate of 50 μL/minute). Running buffer was PBS supplemented with 0.01% Tween-20 and 50 μM EDTA).
Binding affinities were determined using the above described SPR-based approach, measuring binding affinities (KD) of the uPAR-targeting conjugates to immobilized human uPAR protein (the tumor target protein).

uPAR·uPA interaction = uPAR·uPA interaction (Homo sapiens, UniProt Q03405); experiment: SPR competition: inhibition of the uPAR·uPA interaction (immobilized human uPA, 2.5 nM uPAR); type: binding; conditions: uPAR 2.5 nM pre-incubated 10 minutes with conjugate
Method: Surface plasmon resonance (SPR) was applied to determine the IC50-value of uPAR-targeting conjugate for its ability to inhibit the uPAR·uPA interaction. In brief, human recombinant uPA, which is the natural ligand for uPAR, was immobilized to the SPR sensor chip. Binding of uPAR at a concentration of 2.5 nM in the absence of UPAR-binding conjugate was examined, followed by analyses of a fixed uPAR concentration (2.5 nM) incubated with a 2-fold dilution series of uPAR-binding conjugate pre-incubated for 10 minutes at room temperature prior to injection. uPAR injection (at a rate of 50 μL/minute) was performed for 300 s (association), and dissociation was assessed for 500 s (at a rate of 50 μL/minute). The uPAR/uPAR-binding conjugate complex was injected from low to high concentration with a regeneration step followed by a buffer injection in between each injection. Regeneration was performed for 20 s by injection of 0.5 M NaCl+0.1 M Acetic acid at a 30 μL/min flow rate, followed by running buffer wash (running buffer: PBS supplemented with 0.01% Tween-20 and 50 μM EDTA).
From this type of SPR analysis, the IC50 values for uPAR-targeting conjugates were determined.
The top signal represents uPAR binding in the absence of uPAR-targeting conjugate.

[1] = molecular target: recombinant human uPAR containing a His-tag (immobilized to a NTA chip) (human) (UniProt Q03405); experiment: SPR, His-tagged human uPAR on NTA chip, steady-state responses
[2] = molecular target: human uPAR (urokinase Plasminogen Activator Receptor), in solution at 2.5 nM in the competition SPR assay (human) (UniProt Q03405); experiment: SPR competition: 2.5 nM uPAR pre-incubated with dilution series of conjugate, injected over immobilised human uPA
Sequence of human uPAR (urokinase Plasminogen Activator Receptor), in solution at 2.5 nM in the competition SPR assay (human) (Q03405 23-305 limits assumed): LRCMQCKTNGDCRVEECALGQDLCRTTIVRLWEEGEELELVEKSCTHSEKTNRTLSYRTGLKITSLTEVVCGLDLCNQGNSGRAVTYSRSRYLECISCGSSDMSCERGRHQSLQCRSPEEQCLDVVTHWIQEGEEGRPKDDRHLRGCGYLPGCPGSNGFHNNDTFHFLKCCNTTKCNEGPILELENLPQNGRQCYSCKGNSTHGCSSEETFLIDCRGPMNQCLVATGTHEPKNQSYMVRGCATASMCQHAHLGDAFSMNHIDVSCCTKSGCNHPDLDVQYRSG

Sequence of recombinant human uPAR containing a His-tag (immobilized to a NTA chip) (human) (Q03405 23-305 limits assumed): as above
Sequence of uPAR·uPA interaction (Q03405 23-305): as the sequence (Q03405 23-305 limits assumed) above

Molecule: CC(C)C[C@H](NC(=O)[C@H](Cc1ccc(O)cc1)NC(=O)[C@@H](CCCNC(=N)N)NC(=O)[C@@H](CO)NC(=O)[C@H](Cc1ccccc1)NC(=O)[C@H](CC1CCCCC1)NC(=O)[C@H](CC(=O)O)NC(=O)COCCOCCNC(=O)COCCOCCNC(=O)[C@H](CCC(=O)O)NC(=O)[C@H](CCC(=O)O)NC(=O)CCCCCN1C(=CC=C2CCCC(C=CC3=[N+](CCCCS(=O)(=O)[O-])c4ccc(S(=O)(=O)O)cc4C3(C)C)=C2Oc2ccc(S(=O)(=O)O)cc2)C(C)(C)c2cc(S(=O)(=O)O)ccc21)C(=O)N[C@@H](Cc1c[nH]c2ccccc12)C(=O)N[C@@H](CO)C(=O)O [Compound example 2, IRDye800CW-EE-020c-020c-DChaFsrYLWS-OH]
kon (human uPAR; on-rate binding): ≥ 4.6e+06 M⁻¹ s⁻¹

Molecule: Compound example 1: uPAR-targeting conjugate based on the fluorophore ICG and the peptide AE105 (DXFSRYLWS; D-residues; non-natural residues; cyclised or stapled)
IC50 (uPAR·uPA interaction): 0.007 µM | Kd (human uPAR; KD from steady state binding responses where Kon too fast): 2 µM | Kon (human uPAR; on-rate binding): ≥4.6e+06 M⁻¹ s⁻¹

Kd [1]: 0.325 µM | IC50 [2]: 0.024 µM
Molecule: {IRDye800CW′}-EE[AEEA][AEEA]D[Cha]F[dS][dR]YLWS-OH
